From patent US20260243780A1

Key:
[1] = target: transferrin receptor protein 1 (TFRC), as used in the SPR measurement; experiment: SPR, concentration gradient binding curves
[2] = target: SLC3A2, as used in the SPR measurement; experiment: SPR, concentration gradient binding curves

Work on “Cf48 small peptide (C4orf48), as used in the SPR measurement” yielded a Kd [1] of 571 nM and a Kd [2] of 35.2 nM.
